Test results from publication PMC3753260, “High Yield Production of a Soluble Human Interleukin-3 Variant from E. coli with Wild-Type Bioactivity and Improved Radiolabeling Properties” (PLoS ONE, 2013).

Tests used:
human IL-3Rα subunit = target: T1, human IL-3Rα subunit (human, UniProt P26951 19-378); experiment: radioligand binding; ^125I-labelled hIL-3(13-125; W13Y) on COS cells transiently expressing IL-3 receptors; Scatchard analysis with EBDA-LIGAND software; details: one partner purified
T1 construct: human interleukin-3 receptor α subunit, transiently expressed on COS cells; also called hIL-3Rα; IL-3-specific α-subunit; source: COS cells, transfected by electroporation (pSG5: IL-3Rα), on cells
T1 sequence (P26951 19-378): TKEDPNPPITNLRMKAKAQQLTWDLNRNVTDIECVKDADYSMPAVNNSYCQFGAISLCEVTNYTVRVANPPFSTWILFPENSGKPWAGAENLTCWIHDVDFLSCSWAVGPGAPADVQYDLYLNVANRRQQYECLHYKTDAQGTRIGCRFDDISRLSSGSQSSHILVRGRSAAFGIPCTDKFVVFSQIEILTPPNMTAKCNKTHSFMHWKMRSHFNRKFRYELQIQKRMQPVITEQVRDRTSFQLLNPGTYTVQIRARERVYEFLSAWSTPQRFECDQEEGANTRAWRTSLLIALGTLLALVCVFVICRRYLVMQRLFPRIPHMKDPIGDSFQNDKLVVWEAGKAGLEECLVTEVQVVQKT

[1] = target: T2, hIL-3Rα and hβc subunits co-expressed (hIL-3 receptor) (human, UniProt P26951 19-378; P32927 17-897); experiment: as above; details: one partner purified
T2 construct: human interleukin-3 receptor α subunit, transiently co-expressed with βc on COS cells; human common β-subunit (βc) shared with the IL-5 and GM-CSF receptors, transiently co-expressed with IL-3Rα on COS cells; The two subunits were co-expressed on the same cells; also called IL-3Rα and βc; hIL-3 receptors; source: COS cells, transfected by electroporation (pSG5: IL-3Rα and pSG5: βc), on cells
T2 sequence (P26951 19-378, chain 1 of 2): as the sequence (P26951 19-378) above
T2 sequence (P32927 17-897, chain 2 of 2): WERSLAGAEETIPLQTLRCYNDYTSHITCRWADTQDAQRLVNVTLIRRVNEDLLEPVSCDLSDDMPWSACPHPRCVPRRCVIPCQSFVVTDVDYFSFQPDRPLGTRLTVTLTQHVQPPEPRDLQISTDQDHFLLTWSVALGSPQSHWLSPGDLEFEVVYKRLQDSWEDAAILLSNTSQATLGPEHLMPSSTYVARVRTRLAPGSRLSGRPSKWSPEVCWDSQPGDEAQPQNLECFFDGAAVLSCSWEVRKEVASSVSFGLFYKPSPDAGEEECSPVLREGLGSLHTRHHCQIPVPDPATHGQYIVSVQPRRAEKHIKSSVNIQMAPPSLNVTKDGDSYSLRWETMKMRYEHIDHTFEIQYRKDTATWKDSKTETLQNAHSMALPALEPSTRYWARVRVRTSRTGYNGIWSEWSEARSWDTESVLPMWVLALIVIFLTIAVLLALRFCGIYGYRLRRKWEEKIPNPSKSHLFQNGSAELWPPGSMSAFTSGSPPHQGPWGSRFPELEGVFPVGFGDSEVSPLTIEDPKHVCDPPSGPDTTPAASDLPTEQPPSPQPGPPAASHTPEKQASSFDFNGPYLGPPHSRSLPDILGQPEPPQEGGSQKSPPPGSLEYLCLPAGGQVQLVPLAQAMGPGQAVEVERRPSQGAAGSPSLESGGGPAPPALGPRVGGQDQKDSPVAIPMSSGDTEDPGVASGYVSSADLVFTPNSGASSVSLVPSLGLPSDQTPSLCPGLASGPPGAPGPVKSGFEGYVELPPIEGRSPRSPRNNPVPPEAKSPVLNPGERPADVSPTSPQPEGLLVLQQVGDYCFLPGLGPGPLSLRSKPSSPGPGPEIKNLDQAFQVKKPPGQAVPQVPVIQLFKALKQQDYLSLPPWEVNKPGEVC

- Kd (human IL-3Rα subunit): 0.143 µM
- Kd [1]: 0.000456 µM
B1: ^125I-hIL-3(13-125; W13Y) (ligand, human)
chain: GAMGSYVNCSNMIDEIITHLKQPPLPLLDFNNLNGEDQDILMENNLRRPNLEAFNRAVKSLQNASAIESILKNLLPCLPLATAAPTRHPIHIKDGDWNEFRRKLTFYLKTLENAQAQQ
modifications: ^125I radio-iodinated (tyrosine labelling, Pierce Pre-Coated Iodination tubes / Iodogen)
notes: non-native N-terminal overhang left after TEV protease cleavage of the NusA-His6 tag (cloning artifact); human interleukin-3, four-helix bundle core, residues 13-125 with W13Y; numbers count on: the mature protein; Vector pETNusH HTb; also called hIL-3(W13Y); hIL-3 analog; source: E. coli BL21 CodonPlus (DE3)-RIPL, purified (Ni-NTA, TEV cleavage, SEC, in some cases RP-HPLC), then radio-iodinated; …
